The values that follow come from patent CN114736300A (SUZHOU ABCARTA MEDICAL TECH CO LTD, dated 2022).

Test [1] addresses HER2蛋白 (表达HER2蛋白的细胞) (UniProt P04626). Description: flow cytometry on 1×10^6 cells expressing HER2, 0.5 μg antibody, Alexa Fluor 488 goat anti-rabbit secondary. For orientation: In flow cytometry, cells or beads pass a laser one at a time.
For test [2] the target is unchanged. Description: flow cytometry on cells expressing HER2, against the blank control without antibody.
For a further test, the target named is T1, HER2抗原合成多肽 (SEQ ID No.1) (not fully specified; also: coupled to KLH or OVA for immunisation).
T1 construct: It was coupled to KLH or OVA for immunisation; also called HER2的多肽
T1 peptide: PTAENPEYLGLDVPV
Description: ELISA screening of hybridoma clones on the HER2 antigen (SEQ ID NO.1). Background: ELISA stands for enzyme-linked immunosorbent assay.

No end group written: not given here.

B1: 246G0D3抗HER2重组兔单克隆抗体 (antibody, V domains shown)
VH: QSVEESGGRLVTPGTPLTLTCTVSGFSLSSYAMSWVRQAPGKGLEYIGIIRSSGSTYYASWAKGRFTISKTSTTVDLKLTSPTSEDTATYFCCRGSPGSGSGYSVLWGQGTLVTVSS
VL: AAVLTQTPSPVSAAVGGTVSISCQSSKSVYNNNCLAWYQQKPGQPPKLLIYGASTLASGVPSRFKGSGSGTQFTLTISDVQCDDAATYYCAGGYTDDSDDGFGGGTEVVVK
notes: also called 246G0D3抗体; 246G0D3抗HER2单克隆抗体
B1 came in with an MFI in the test with HER2蛋白 (表达HER2蛋白的细胞) [1] of 2480. Moreover, the fold MFI against the blank control with HER2蛋白 (表达HER2蛋白的细胞) [2] was 251 倍. Besides, in the test with HER2抗原合成多肽 (SEQ ID No.1), the binding result is recorded as “binds”.
